Series [1] has as its system VchCAST RNA-guided transposition machinery (E. coli BL21(DE3) host, lacZ target). Put plainly: relative integration efficiency (T-LR orientation) vs wild-type transposon end (log2 (normalized fold change)); transposon end mutated: right end (5 bp flank + 75 bp right end); higher = more efficient transposition. In short, it runs like this: (§1)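 Relative integration efficiency is a fold change of output over input barcode abundance, normalised to reference barcodes and log-transformed. Input plasmids and genomic integration junctions were PCR-amplified and Illumina-sequenced from E. coli BL21(DE3) co-transformed with a T7-driven effector plasmid and pUC57 donor pools of 1549 left-end or 1849 right-end transposon variants. Plating was done with 0.1 mM IPTG at 37°C for 18 h, with two biological output replicates and four reference barcodes.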

For series [2] the test system is unchanged. Put plainly: relative integration efficiency (T-RL orientation) vs wild-type transposon end (log2 (normalized fold change)); transposon end mutated: right end (5 bp flank + 75 bp right end); higher = more efficient transposition. In short, it runs like this: as §1

± gives the standard deviation of the averaged measurements.

As to “ACATTTGTTGATACACCCATAAATTGATAATTACAACCATAAAGTGATATTTATCACACCCATAAATTGATATTGCCTCTGATCATAGTCAGACCAACATTGCTACGACCCGTATTCGCACCGACAC”, the “relative integration efficiency (log2)” value in series [1] was -0.466 ± 0.18; in series [2], -0.477 ± 0.26.

For “ACATTTGTTGATACACCCATAAATTGATAATTACAACCATAAAGTGATATTTATCAGTGGGTATTTAACTATAACGCTCTGATCATAGTCAGACCAACATTGCTACGACCCGTATTCGCACCGACAC”, the “relative integration efficiency (log2)” value in series [1] was 2.08 ± 0.1; in series [2], -0.744 ± 0.28.

For “ACATTTGTTGATACACCCATAAATTGATAATTACAACCATAAGTTGATATTTTTCACAACCATAAAATGATAATTACTCTGATCATAGTCAGACCAACATTGCTACGACCCGTATTCGCACCGACAC”, the entries for the “relative integration efficiency (log2)” value in series [1] and in series [2] were -0.748 ± 0.17 and -0.644 ± 0.31, respectively.

As to “ACATTTGTTGATACACCCATAAATTGATAATTACAACCATAAGTTGATATTTTTCACAACCATAAAGTGATATTTACTCTGATCATAGTCAGACCAACATTGCTACGACCCGTATTCGCACCGACAC”, the “relative integration efficiency (log2)” value was -0.228 ± 0.18 in series [1] and -0.613 ± 0.13 in series [2].

In the case of “ACATTTGTTGATACACCCATAAATTGATAATTACAACCATAAGTTGATATTTTTCACAACCATAAGTTGATATTTTCTCTGATCATAGTCAGACCAACATTGCTACGACCCGTATTCGCACCGACAC”, the “relative integration efficiency (log2)” value in series [1] was -0.275 ± 0.18; in series [2] it was -0.543 ± 0.19.

“ACATTTGTTGATACACCCATAAATTGATAATTACAACCATAAGTTGATATTTTTCACAACCATATATTGATATCTCCTCTGATCATAGTCAGACCAACATTGCTACGACCCGTATTCGCACCGACAC”: the entries for the “relative integration efficiency (log2)” value in series [1] and in series [2] were -0.393 ± 0.46 and -0.626 ± 0.19, respectively.

On to “ACATTTGTTGATACACCCATAAATTGATAATTACAACCATAAGTTGATATTTTTCACACCCATAAATTGATAATTACTCTGATCATAGTCAGACCAACATTGCTACGACCCGTATTCGCACCGACAC”, for which the “relative integration efficiency (log2)” value is 0.055 ± 0.036 in series [1] and -0.622 ± 0.16 in series [2].

In the case of “ACATTTGTTGATACACCCATAAATTGATAATTACAACCATAAGTTGATATTTTTCACACCCATAAATTGATATTGCCTCTGATCATAGTCAGACCAACATTGCTACGACCCGTATTCGCACCGACAC”, the “relative integration efficiency (log2)” value in series [1] is -0.56 ± 0.069; in series [2], -0.708 ± 0.17.

As to “ACATTTGTTGATACACCCATAAATTGATAATTACAACCATAAGTTGATATTTTTCAGTGGGTATTTAACTATAACGCTCTGATCATAGTCAGACCAACATTGCTACGACCCGTATTCGCACCGACAC”, the “relative integration efficiency (log2)” value was 2.821 ± 0.028 in series [1] and -0.128 ± 0.33 in series [2].

For “ACATTTGTTGATACACCCATAAATTGATAATTACAACCATATATTGATATCTCTCACAACCATAAAATGATAATTACTCTGATCATAGTCAGACCAACATTGCTACGACCCGTATTCGCACCGACAC”, the “relative integration efficiency (log2)” value in series [1] was -0.825 ± 0.58; in series [2], -0.747 ± 0.26.

On to “ACATTTGTTGATACACCCATAAATTGATAATTACAACCATATATTGATATCTCTCACAACCATAAAGTGATATTTACTCTGATCATAGTCAGACCAACATTGCTACGACCCGTATTCGCACCGACAC”, for which the “relative integration efficiency (log2)” value in series [1] was 0.11 ± 0.14; in series [2], -0.664 ± 0.34.

On to “ACATTTGTTGATACACCCATAAATTGATAATTACAACCATATATTGATATCTCTCACAACCATAAGTTGATATTTTCTCTGATCATAGTCAGACCAACATTGCTACGACCCGTATTCGCACCGACAC”, for which the entries for the “relative integration efficiency (log2)” value in series [1] and in series [2] were 0.798 ± 0.25 and 0.516 ± 0.26, respectively.

Take “ACATTTGTTGATACACCCATAAATTGATAATTACAACCATATATTGATATCTCTCACAACCATATATTGATATCTCCTCTGATCATAGTCAGACCAACATTGCTACGACCCGTATTCGCACCGACAC”: the “relative integration efficiency (log2)” value in series [1] was 0.0245 ± 0.11; in series [2], -0.949 ± 0.26.

“ACATTTGTTGATACACCCATAAATTGATAATTACAACCATATATTGATATCTCTCACACCCATAAATTGATAATTACTCTGATCATAGTCAGACCAACATTGCTACGACCCGTATTCGCACCGACAC”: the “relative integration efficiency (log2)” value in series [1] is 0.157 ± 0.34; in series [2] it was -0.753 ± 0.22.

As for “ACATTTGTTGATACACCCATAAATTGATAATTACAACCATATATTGATATCTCTCACACCCATAAATTGATATTGCCTCTGATCATAGTCAGACCAACATTGCTACGACCCGTATTCGCACCGACAC”, the results for the “relative integration efficiency (log2)” value in series [1] and in series [2] were -0.339 ± 0.29 and -0.676 ± 0.13, respectively.

Regarding “ACATTTGTTGATACACCCATAAATTGATAATTACAACCATATATTGATATCTCTCAGTGGGTATTTAACTATAACGCTCTGATCATAGTCAGACCAACATTGCTACGACCCGTATTCGCACCGACAC”, the results for the “relative integration efficiency (log2)” value in series [1] and in series [2] were 2.39 ± 0.18 and -1.17 ± 0.28, respectively.

With “ACATTTGTTGATACACCCATAAATTGATAATTACACCCATAAATTGATAATTATCACAACCATAAAATGATAATTACTCTGATCATAGTCAGACCAACATTGCTACGACCCGTATTCGCACCGACAC”, the “relative integration efficiency (log2)” value was -0.749 ± 0.39 in series [1] and -0.366 ± 0.2 in series [2].

Take “ACATTTGTTGATACACCCATAAATTGATAATTACACCCATAAATTGATAATTATCACAACCATAAAGTGATATTTACTCTGATCATAGTCAGACCAACATTGCTACGACCCGTATTCGCACCGACAC”: the entries for the “relative integration efficiency (log2)” value in series [1] and in series [2] were -0.01 ± 0.22 and -0.445 ± 0.034, respectively.

Regarding “ACATTTGTTGATACACCCATAAATTGATAATTACACCCATAAATTGATAATTATCACAACCATAAGTTGATATTTTCTCTGATCATAGTCAGACCAACATTGCTACGACCCGTATTCGCACCGACAC”, the figures for the “relative integration efficiency (log2)” value in series [1] and in series [2] were -0.206 ± 0.42 and -0.361 ± 0.17, respectively.

“ACATTTGTTGATACACCCATAAATTGATAATTACACCCATAAATTGATAATTATCACAACCATATATTGATATCTCCTCTGATCATAGTCAGACCAACATTGCTACGACCCGTATTCGCACCGACAC”: the “relative integration efficiency (log2)” value in series [1] was -0.271 ± 0.04; in series [2], -0.596 ± 0.21.

As to “ACATTTGTTGATACACCCATAAATTGATAATTACACCCATAAATTGATAATTATCACACCCATAAATTGATAATTACTCTGATCATAGTCAGACCAACATTGCTACGACCCGTATTCGCACCGACAC”, the results for the “relative integration efficiency (log2)” value in series [1] and in series [2] were -0.257 ± 0.33 and -0.6 ± 0.15, respectively.

With “ACATTTGTTGATACACCCATAAATTGATAATTACACCCATAAATTGATAATTATCACACCCATAAATTGATATTGCCTCTGATCATAGTCAGACCAACATTGCTACGACCCGTATTCGCACCGACAC”, the “relative integration efficiency (log2)” value in series [1] was -0.0387 ± 0.31; in series [2], -0.116 ± 0.036.

For “ACATTTGTTGATACACCCATAAATTGATAATTACACCCATAAATTGATAATTATCAGTGGGTATTTAACTATAACGCTCTGATCATAGTCAGACCAACATTGCTACGACCCGTATTCGCACCGACAC”, the results for the “relative integration efficiency (log2)” value in series [1] and in series [2] were 2.54 ± 0.063 and -0.394 ± 0.0092, respectively.

Regarding “ACATTTGTTGATACACCCATAAATTGATAATTACACCCATAAATTGATATTGCTCACAACCATAAAATGATAATTACTCTGATCATAGTCAGACCAACATTGCTACGACCCGTATTCGCACCGACAC”, the “relative integration efficiency (log2)” value was -0.204 ± 0.23 in series [1] and -0.918 ± 0.33 in series [2].

“ACATTTGTTGATACACCCATAAATTGATAATTACACCCATAAATTGATATTGCTCACAACCATAAAGTGATATTTACTCTGATCATAGTCAGACCAACATTGCTACGACCCGTATTCGCACCGACAC”: the “relative integration efficiency (log2)” value in series [1] is -0.114 ± 0.24; in series [2], -0.813 ± 0.18.

For the sequence “ACATTTGTTGATACACCCATAAATTGATAATTACACCCATAAATTGATATTGCTCACAACCATAAGTTGATATTTTCTCTGATCATAGTCAGACCAACATTGCTACGACCCGTATTCGCACCGACAC”, the “relative integration efficiency (log2)” value was 0.079 ± 0.1 in series [1] and -0.802 ± 0.24 in series [2].

On to “ACATTTGTTGATACACCCATAAATTGATAATTACACCCATAAATTGATATTGCTCACAACCATATATTGATATCTCCTCTGATCATAGTCAGACCAACATTGCTACGACCCGTATTCGCACCGACAC”, for which the “relative integration efficiency (log2)” value in series [1] was 0.128 ± 0.24; in series [2], -1.02 ± 0.26.

In the case of “ACATTTGTTGATACACCCATAAATTGATAATTACACCCATAAATTGATATTGCTCACACCCATAAATTGATAATTACTCTGATCATAGTCAGACCAACATTGCTACGACCCGTATTCGCACCGACAC”, the entries for the “relative integration efficiency (log2)” value in series [1] and in series [2] were 0.319 ± 0.23 and -0.735 ± 0.34, respectively.

On to “ACATTTGTTGATACACCCATAAATTGATAATTACACCCATAAATTGATATTGCTCACACCCATAAATTGATATTGCCTCTGATCATAGTCAGACCAACATTGCTACGACCCGTATTCGCACCGACAC”, for which the entries for the “relative integration efficiency (log2)” value in series [1] and in series [2] were 0.393 ± 0.28 and -0.538 ± 0.15, respectively.

Consider “ACATTTGTTGATACACCCATAAATTGATAATTACACCCATAAATTGATATTGCTCAGTGGGTATTTAACTATAACGCTCTGATCATAGTCAGACCAACATTGCTACGACCCGTATTCGCACCGACAC”, for which the “relative integration efficiency (log2)” value was 2.63 ± 0.18 in series [1] and -1.23 ± 0.25 in series [2].

In the case of “ACATTTGTTGATACACCCATAAATTGATATTGCCAACCATAAAATGATAATTATCACAACCATAAAATGATAATTACTCTGATCATAGTCAGACCAACATTGCTACGACCCGTATTCGCACCGACAC”, the “relative integration efficiency (log2)” value in series [1] was -0.058 ± 0.3; in series [2], -0.123 ± 0.11.

“ACATTTGTTGATACACCCATAAATTGATATTGCCAACCATAAAATGATAATTATCACAACCATAAAGTGATATTTACTCTGATCATAGTCAGACCAACATTGCTACGACCCGTATTCGCACCGACAC”: the “relative integration efficiency (log2)” value in series [1] was -0.327 ± 0.1; in series [2], -0.59 ± 0.12.

These data come from the supplement of paper PMC10201428.
